Data on one substance can be found in US20200010570A1.

As usually defined, the Kd is the equilibrium constant for the complex coming apart. For orientation: koff means the rate constant with which the complex falls apart. Higher therefore signals a short-lived complex. As a reminder, the kon is the second-order rate constant of association. Read a low kon as slow association.

The target of the test is C1q (Fitzgerald, Cat. No. 32R-AC049) (UniProt P02745). As to the kind of experiment: ForteBio, biotinylated antibody on SA chip, C1q from 200 nM.
Chain of C1q (Fitzgerald, Cat. No. 32R-AC049) (P02745 23-245 limits assumed, chain 1 of 3): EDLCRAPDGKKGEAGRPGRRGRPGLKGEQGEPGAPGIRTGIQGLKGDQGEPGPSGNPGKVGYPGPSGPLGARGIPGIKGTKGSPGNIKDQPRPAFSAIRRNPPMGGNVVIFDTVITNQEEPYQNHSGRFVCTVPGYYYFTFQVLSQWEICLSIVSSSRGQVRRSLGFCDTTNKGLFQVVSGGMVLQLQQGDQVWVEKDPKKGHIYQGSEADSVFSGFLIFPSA
Chain of C1q (Fitzgerald, Cat. No. 32R-AC049) (P02746 28-253 limits assumed, chain 2 of 3, further chain): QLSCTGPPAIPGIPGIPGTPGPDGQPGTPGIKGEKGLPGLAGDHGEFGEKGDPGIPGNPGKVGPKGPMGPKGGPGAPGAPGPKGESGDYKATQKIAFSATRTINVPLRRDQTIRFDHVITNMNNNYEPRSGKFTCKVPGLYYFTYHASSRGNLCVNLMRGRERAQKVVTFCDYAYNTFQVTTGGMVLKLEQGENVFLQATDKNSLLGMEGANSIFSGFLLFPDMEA
Chain of C1q (Fitzgerald, Cat. No. 32R-AC049) (P02747 29-245 limits assumed, chain 3 of 3, further chain): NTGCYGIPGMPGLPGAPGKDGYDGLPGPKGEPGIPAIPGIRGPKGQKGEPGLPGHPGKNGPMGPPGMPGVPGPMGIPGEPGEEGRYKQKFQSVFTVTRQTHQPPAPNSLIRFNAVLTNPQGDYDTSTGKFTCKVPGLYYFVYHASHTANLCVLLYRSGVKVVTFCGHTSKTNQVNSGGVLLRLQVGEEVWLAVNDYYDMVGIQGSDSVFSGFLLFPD

“Tecentriq® (Atezolizumab, purchased from Roche) (antibody)” gave an equilibrium dissociation constant (Kd) of 1.3 nM, a koff of 0.00176 s⁻¹ and an on-rate constant (kon) of 1.36e+06 M⁻¹ s⁻¹.
